# Source: the DeepSol protein solubility set
# Assay: soluble on expression in E. coli; label from the status in PepcDB or PDB records
row,Sequence,soluble on expression in E. coli
1,MFDRYESGERAVLVHINFTQEGEWEDLAEFEMLVSSAGVETLQVVTGSRQSPHPKYYVGEGKAQEIATTVHLTGAEIVIFNHSLSPAQERNLEALCKCRVLDRTGLILDIFAQRARTHEGKLQVELAQLRHISTRLIRGWTHLERQKGGIGLRGPGETQLETDRRLLRERIKAILRRLEKVAKQREQGRRARNRAEIPTISLVGYTNAGKSTLFNRITEAGVYAADQLFATLDPTLRKMELADVGPAILADTVGFIRHLPHDLVAAFKATLQETQEADILLHVVDASDERFRENIQAVHEVLEEIDAHEVPTLVVMNKIDNLESQTPRIERDEEGVPRAVWVSAMEGLGIELLFDALTERLASQMVEHQLRIPPQYQGRFRSTFFQMKCIQREEYDQDGNLLIDIRMQQVDWSRLEKREGAVLTDFIVTLEHHHHHH,not soluble
2,MDFDRIAMRTTDPAWQKGSAPATPSPVEADAKVTMRLRYTKTGAMRYLSHLEMIGLFTRAVGRARLPIRFSQGFHPHPKFSFATALSVGVESWAEYLDMELIPSLTPGEVRDRLNAALPEGMRIVEAVVIPPGTPSLSVLMDKVRYRIILLEEAARDLAARAEAFLARDSFPLRRAKKGRIQEYDLEHHHHHH,not soluble
3,MSLIIYGYCRVSTKNQTDNNSLYQQQQEILNKYNDAKIIKETYTGTTTNRPKFEKIISSLKKGDLLVATKLDRLARSTSEGIQLIEGLFAKEVSVHILNIGLLENTSMGKFFLTTLLAVAELERNMIIERTQLGKEFAKKKKDFKDGRPKKYSNQQIQYALGLLNSKPYREVVKMTGISKSTLIRAKKSIEGHHHHHH,soluble
4,MHAVKPFPLCNLPLISLREVIDYLPTFDIFVLLHTSQKTKKLISSNIRDFVARQEHYKKQDISVRVVAERSYMEVIAISPKIRSTRFKRNDINQALEAAKYLVDHFKCDTDSVWLRITHRKEDETRQIITSVKEINLNITNLQFRHERISSDLFNWLLENCVQDVHIWVLEPQSITVSNWNVFEKVRKYNFQGINFSSHQANMLLKSLKSNNNFVQFRANDIENSLDLSVVFEDTGATAKMDTYRSVVFRPGLTVLKEYKPSKSRFVTENNNGGEMSICITEHAFSFQSN,not soluble
5,MVKIGVCGPVGSGKTALIEALTRHMSKDYDMAVITNDIYTKEDAEFMCKNSVMPRERIIGVETGGCPHTAIREDASMNLEAVEEMHGRFPNLELLLIESGGDNLSATFNPELADFTIFVIDVAEGDKIPRKGGPGITRSDLLVINKIDLAPYVGADLKVMERDSKKMRGEKPFIFTNIRAKEGLDDVIAWIKRNALLEDLEHHHHHH,soluble
6,MGSDKIHHHHHHNRDPHEGERGLTVAIDNTQCPDVPIGAIKLYIYGTGGNLYATYNYADARGIASVLHPLEAGHYTVAVVINADEEAAETSTLTALHEWLEIEMSHETNLLSGIAEVNVTEDGISPVTVFLQRGVFTLSTLRLQLTLPAPKLPDYTPEKSKTRAAGTANTIRCVAELCKAGTDIVVLHKAVTPVPQADGTYLVELELAEGSYDLRLWTDYARADNPLADTFYHTESLKAVTIVTKPYTANTDAKDAAYYNKSDITLSKEGATMNVQLQRPLAKYRLIAKDVENYRKLMEAKPDIYPPLKNLTVKVLYEGYFPSGFNVSTGKPNDAVGGISYSQVSLHYNDVDNEVLLGGDWVLVNGTESLVNVTVTVTDNLGNTLCRASGVKINYRNSHLTTVYGNFLTAGINKGGIDINTEWSGIYNVWF,not soluble
7,MWKRLCAGLSCRKFINQVTMTSVNKNRKSRDENEMAKYNEKELADTSKFLSFVLRHKPEAIGIVLDREGWADIDKLILCAQKAGKRLTRALLDTVVATSDKKRFSYSSDGRCIRAVQGHSTSQVAISFAEKTPPQFLYHGTASRFLDEIKKQGLIAGERHYVHLSADEATARKVGARHGSPVILTVKAQEMAKRGLPFWQAENGVWLTSTVAVEFLEWLEHHHHHH,not soluble
8,QSEPELKLESVVIVSRHGVRAPTKATQLMQDVTPDAWPTWPVKLGWLTPRGGELIAYLGHYQRQRLVADGLLAKKGCPQSGQVAIIADVDERTRKTGEAFAAGLAPDCAITVHTQTDTSSPDPLFNPLKTGVCQLDNANVTDAILSRAGGSIADFTGHRQTAFRELERVLNFPQSNLCLKREKQDESCSLTQALPSELKVSADNVSLTGAVSLASMLTEIFLLQQAQGMPEPGWGRITDSHQWNTLLSLHNAQFYLLQRTPEVARSRATPLLDLIKTALTPHPPQKQAYGVTLPTSVLFIAGHDTNLANLGGALELNWTLPGQPDNTPPGGELVFERWRRLSDNSQWIQVSLVFQTLQQMRDKTPLSLNTPPGEVKLTLAGCEERNAQGMCSLAGFTQIVNEARIPACSL,soluble
9,MGSDKIHHHHHHMSHTLYEASVIRVQRCELAVPGSNPGMFEKALKSGVDFVFLDLEDAVAPDDKLTARKNVIEALNDLDWRGHGVTVSVRINGLDTQFMVRDVVDVVEKAGHKLDTILIPKVGVYSDVYMVEAMLNQLEMQQGLKNRIGIEALIETALGMANVEDIARHGVRGRLEALHFGVADYAASNRARTTNIGGLNPDYPGDQWHAAISRMTVACRAYGLRPIDGPFGDIQDPEGYKAAARRAAALGCEGKWAIHPSQIDLANEVFTPPPSEVEKAQRILAALQEAAAQGKGAAALDGRLIDAASARMANNVVKMAEAIGATAT,not soluble
10,MKVVQRKIKKSGKDRKRIGRGGSAYILDKRRITAVQNMKREAEKEKLRERFAAAANMPKDVVLGASVVTVIGNGEISIENYRGILEYTGELIRVQTKKGQIQVHGKGLQIEYYLNDEMKITGKIHTLEYEMLEHHHHHH,soluble
11,MTKYIFVTGGVVSSLGKGITAASLGRLLKNRGLNVTIQKFDPYINVDPGTMSPYQHGEVFVTDDGAETDLDLGHYERFIDINLNKYSNVTTGKIYSAVIRKERRGDYLGGTVQVIPHITNEIKERVFRAGRETNADVVITEIGGTVGDIESLPFLEAIRQIKSDVGRENVMYIHCTLVPYIKAAGEMKTKPTQHSVKELRSLGIQPNVIVVRTEMPMPQEMKEKIALFCDIDPKAVIEARDADTLYAVPLMLQEQKLDQIVCEHLRLNCREADMTEWKALVEKVRNLSKTTKIALVGKYVELPDAYISVVEALRHAGYAFDTDIDIQWINAEHVTRDNVADLLKDADGILVPGGFGDRGVEGKIEAIRYAREQRVPFLGICLGMQLASIEFARHVVGLSGAHSSEFDPNTPHPIIDLLPEQKDVEDLGGTLRLGLYPCKLQEGTLAYAAYGDEVIYERHRHRYEFNNQYRSIMEEHGFVFSGTSPDGRLVEVIELKDHPWFVAAQFHPEFTSRPTRPQPLFREFVRASLKE,not soluble
12,MSLNSEAKSRIACDIDFDRDGRQAGYARAPLSRNNSGWGTVEIPITVVKNGSGPTVLLTGGVHGDEYEGQIAISDLARRLRPEEVQGRVIMLPAVNMPAIQSDTRLSPVDGRDINRCFPGDPRGTFSQMLAHFLDSVILPMADISVDMHTAGHSYDSTPSTNMHYLADPALRARTLAAAEAFGAPHNVVFGGVDEGSTFTSCVERRGIVSLGTELGGWGRVNIEGVRIGKRGILNVLKHMGVIEGTPETAQRGGAAGTRHMMVREADAYVMAPRTGLFEPTHYVGEEVRTGETAGWIHFVEDVDTAPLELLYRRDGIVWFGAGPGRVTRGDAVAVVMEDYNDTWPQEGHHHHHH,soluble
13,MSLNHHPIIYLVDHQKDARAALSKLLSPLDVTIQCFASAESFMRQQISDDAIGMIIEAHLEDKKDSGIELLETLVKRGFHLPTIVMASSSDIPTAVRAMRASAADFIEKPFIEHVLVHDVQQIINGAKEGHHHHHH,soluble
14,NVPELIGAQAHAVNVILDAETAYPNLIFSDDLKSVRLGNKWERLPDGPQRFDSCIIVLGSPSFLSGRRYWEVEVGDKTAWILGACKTSISRKGNMTLSPENGYWVVIMMKENEYQASSVPPTRLLIKEPPKRVGIFVDYRVGSISFYNVTARSHIYTFASCSFSGPLQPIFSPGTRDGGKNTAPLTICPVG,soluble
15,LPYPIPIALTDALDRSVSAELVAVLVAVTQGEPRVLTTEDARALPAGPFELAHRSLQAGLRAWVETQTHHPLGYVEQLYTFADSDRSNEAGARVISVSYLGLTREAGATGVAQVGWQHWYRYFPWEDWRAGRPAIIADEIAPRLLAWAGAGADAAARAQRRQRVALTFGLDGAGWNEDMVLQRYELLFEAGLVPESRHPDASGLPVAGQSMRHDHRRILATGIAR,not soluble
16,GMFADNTLTPKEAVRLCALGTIASQPMRYSELAGSVRHFTSRIMGPSLELMGISIELLRYEGLVEAVDDGQGMEDDAMLAISAAGRRELHSLLTARLRPGSDLSKLVVALKMRFLGLMEAEERAHQIDLLIEGVDSELARLADLRGSDGEGGSALAAWLDHDMALLESRLAWLEDFRARL,soluble
17,SLSTVELSGTVVKQGYLAKQGHKRKNWKVRRFVLRKDPAFLHYYDPSKEENRPVGGFSLRGSLVSALEDNGVPTGVKGNVQGNLFKVITKDDTHYYIQASSKAERAEWIEAIKKLT,soluble
18,MLIRYRKNYEKIAMGLLSFMPTEKDLKRLQQTMKQYETNNDWQLFLWKEGDDIVGIIGVLLRAPDVVEIQHISVNPSHRHQGIGKQMVKALKEVYPGRRLCANEWTASFFDKCHACNE,not soluble
19,MSLGYATAHRRVRHLSADQVITRPETLAVEEPLEIRVNGTPVTVTMRTPGSDFELVQGFLLAEGVVAHREDVLTVSYCGRRVEGNATGASTYNVLDVALAPGVKPPDVDVTRTFYTTSSCGVCGKASLQAVSQVSRFAPGGDPATVAADTLKAMPDQLRRAQKVFARTGGLHAAALFGVDGAMLAVREDIGRHNAVDKVIGWAFERDRIPLGASVLLVSGRASFELTQKALMAGIPVLAAVSAPSSLAVSLADASGITLVAFLRGDSMNVYTRADRITEGHHHHHH,soluble
20,MQLKRVAEAKLPTPWGDFLMVGFEEIATGHDHLALVYGDISGSVPVLARVHSECLTGDALFSLRCDCGFQLEAALGHIAEEGRGVLLYHRQEGRNIGLLNKIRAYALQDLGADTVEANHQLGFAADERDFTLCADMFKLLDVDEVRLLTNNPQKVKILNEAGINIVERVPLIVGRNPKNEHYLATKAAKMGHILDMKLEHHHHHH,not soluble
21,MTSLEKARELLREFPVVDGHNDLPWALREQVRYDLDARDIAADQSAHLHTDLARLRSGGVGAQYWSVYVRSDLPGAVTATLEQIDCVRRLIDRHPGELRAALTAADMEAARAEGRIASLMGAEGGHSIDNSLATLRALYALGVRYMTLTHNDNNAWADSATDEPGVGGLSAFGREVVREMNREGMLVDLSHVAATTMRDALDTSTAPVIFSHSSSRAVCDHPRNIPDDVLERLSANGGMAMVTFVPKFVLQAAVDWTAEADDNMRAHGFHHLDSSPEAMKVHAAFEERVPRPVATVSTVADHLDHMREVAGVDHLGIGGDYDGTPFTPDGLGDVSGYPNLIAELLDRGWSQSDLAKLTWKNAVRVLDAAEDVSRGLRAARGPSNATIEQLDGTAAEQPEG,soluble
22,LKIKMPDDIFVKKELILKDVIKGQIGYMYLPSMSSKNGSINNDLKIIGDYINTLEKHKALIIDIRGNLGGSDRYWQGIVSKLIKNDVKINGYRIYRNNNEIVKKYTNARNIKLNPVENLPASVKENAPKEIIKDFNDFEDTSYTIKSTDDSKFKGNIYLLVDRKIYSSSESFAMFCKENKFATLVGETTGGDGGCIDPVLFNLKNSGLIVRMASCMYLNKNGICDEEFKTIPEFKVKDCKRTADFKDDNCIRKALELENINY,not soluble
23,MSLKSHRYMEVSFTKYRINLKYSFGISRSSNNYYDVAFVFIKDKGIIGRGEAAPSKRYGESIDYIIKLLESGISLPKNSYDKESVWKHVKPQLGGIKSLEAAFNMAIWDWWGQKQKKPVYELLNIKVNNLPKTSFTIAIGNMNEIERKIEEAKPYSILKVKLGTPKNDKKIITEIRKLTDKLIRVDANEGWDLDMAIKMSKWLADRNVEFIEQPFPASKIDQTSILKKKSPLDIFADENSINSNDIPSLEGVFDGINIKLMKCGSIEEGYKMIKLAREFDLKIMLGCMVESSIEGHHHHHH,soluble
